Consider five molecules from publication PMC9234707.

The target in assay [1] is BMPR2-Fc variant Q42R (human) (UniProt Q13873). Description: SPR; BIAcore 3000; receptor-Fc captured on immobilised anti-human IgG (Fc), CM5 chip; titration, global fit of 2.5, 5.0, 10.0, 20.0 and 40.0 nM GF injections; 25 °C; HBS/EPS (0.01 M Hepes, 0.5 M NaCl, 3 mM EDTA, 0.005% Tween 20, pH 7.4) with 0.1% bovine serum albumin; 50 μl/min; 1:1 binding model, KD = kd/ka.
In assay [2] the target is BMPR2 GBD-Fc (WT) (human) (UniProt Q13873). The assay is described as above.
Chain of BMPR2 GBD-Fc (WT) (human) (Q13873 whole entry): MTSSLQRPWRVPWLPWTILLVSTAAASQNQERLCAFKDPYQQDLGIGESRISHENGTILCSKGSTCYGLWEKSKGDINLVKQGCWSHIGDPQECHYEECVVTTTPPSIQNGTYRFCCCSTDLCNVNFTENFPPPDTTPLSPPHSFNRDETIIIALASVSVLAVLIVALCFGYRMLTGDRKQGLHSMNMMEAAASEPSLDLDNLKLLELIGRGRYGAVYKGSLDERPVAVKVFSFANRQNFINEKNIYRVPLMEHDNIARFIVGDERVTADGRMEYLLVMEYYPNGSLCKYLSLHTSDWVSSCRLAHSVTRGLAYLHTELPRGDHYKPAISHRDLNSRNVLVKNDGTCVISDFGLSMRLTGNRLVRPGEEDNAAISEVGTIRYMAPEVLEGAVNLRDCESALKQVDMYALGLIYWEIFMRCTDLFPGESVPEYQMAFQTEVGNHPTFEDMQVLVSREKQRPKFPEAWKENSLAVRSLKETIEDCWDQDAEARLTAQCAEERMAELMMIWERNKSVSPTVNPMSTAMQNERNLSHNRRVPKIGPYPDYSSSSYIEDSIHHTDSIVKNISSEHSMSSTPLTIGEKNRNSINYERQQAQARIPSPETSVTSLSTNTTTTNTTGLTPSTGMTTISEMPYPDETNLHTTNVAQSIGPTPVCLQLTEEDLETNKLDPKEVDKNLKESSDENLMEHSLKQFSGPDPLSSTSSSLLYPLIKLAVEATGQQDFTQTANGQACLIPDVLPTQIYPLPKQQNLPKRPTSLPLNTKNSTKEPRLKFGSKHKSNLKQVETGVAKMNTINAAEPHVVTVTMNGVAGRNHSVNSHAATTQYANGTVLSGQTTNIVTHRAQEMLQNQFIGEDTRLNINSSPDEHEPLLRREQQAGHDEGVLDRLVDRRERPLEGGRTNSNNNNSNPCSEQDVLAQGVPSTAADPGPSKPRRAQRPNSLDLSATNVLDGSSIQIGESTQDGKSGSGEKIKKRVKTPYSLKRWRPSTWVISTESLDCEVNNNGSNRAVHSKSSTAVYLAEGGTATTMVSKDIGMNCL
Assay [3] has as its target BMPR2-Fc variant S107P (human) (UniProt Q13873). The assay is described as above.
Assay [4] concerns the target BMPR2-Fc variant Q92H (human) (UniProt Q13873). Described as above.
The target in assay [5] is BMPR2-Fc variant G47D (human) (UniProt Q13873). The description is as above.
The target of assay [6] is ACVR2A GBD-Fc (human) (UniProt P27037). The description is as above.
Chain of ACVR2A GBD-Fc (human) (P27037 whole entry): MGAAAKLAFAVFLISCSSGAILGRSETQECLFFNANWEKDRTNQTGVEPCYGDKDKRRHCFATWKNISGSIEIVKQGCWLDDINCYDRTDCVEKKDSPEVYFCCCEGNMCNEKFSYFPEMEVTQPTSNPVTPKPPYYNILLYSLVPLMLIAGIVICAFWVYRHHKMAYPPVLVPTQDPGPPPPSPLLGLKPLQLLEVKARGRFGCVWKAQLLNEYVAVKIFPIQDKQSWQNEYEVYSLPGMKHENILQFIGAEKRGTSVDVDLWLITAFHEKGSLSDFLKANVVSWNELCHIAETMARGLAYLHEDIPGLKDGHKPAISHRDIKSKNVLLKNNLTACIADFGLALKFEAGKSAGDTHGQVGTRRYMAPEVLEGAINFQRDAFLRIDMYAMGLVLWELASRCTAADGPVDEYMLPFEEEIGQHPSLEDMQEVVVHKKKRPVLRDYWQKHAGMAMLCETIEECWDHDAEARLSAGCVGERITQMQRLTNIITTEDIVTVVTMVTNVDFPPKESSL
Assay [7] has as its target BMPR2 GBD-Fc (WT) (human) (UniProt Q13873). Described as above. The source holds these as a separate data set.
For assay [8], the target named is ACVR2A GBD-Fc (human) (UniProt P27037). Description: SPR; BIAcore 3000; receptor-Fc (about 500 RU BMPR2-Fc WT or variants, 150 RU ACVR2A-Fc) captured on immobilised anti-human IgG (Fc), CM5 chip; single injections of 80 nM GF, single curve fits, averages of two independent injections; 25 °C; HBS/EPS (0.01 M Hepes, 0.5 M NaCl, 3 mM EDTA, 0.005% Tween 20, pH 7.4) with 0.1% bovine serum albumin; 50 μl/min; 1:1 binding model, KD = kd/ka.

Assay [9] addresses BMPR2 GBD-Fc (WT) (human) (UniProt Q13873). The assay is described as above.
Assay [10] deals with BMPR2-Fc variant Q42R (human) (UniProt Q13873). The description is as above.
The target in assay [11] is BMPR2 GBD-Fc (WT) (human) (UniProt Q13873). The description is as above. This is another data set of the same source.
Assay [12] deals with BMPR2-Fc variant S107P (human) (UniProt Q13873). The description is as above.
The target of assay [13] is BMPR2-Fc variant Q92H (human) (UniProt Q13873). The assay is described as above.
Assay [14] deals with BMPR2-Fc variant G47D (human) (UniProt Q13873). The description is as above.

B1: activin B (ligand)
chain: GLECDGRTNLCCRQQFFIDFRLIGWNDWIIAPTGYYGNYCEGSCPAYLAGVPGSASSFHTAVVNQYRMRGLNPGTVNSCCIPTKLSTMSMLYFDDEYNIVKRDVPNMIVEECGCA
B1: the Kd in assay [1] was found to be 1.4 nM; in assay [3], 0.28 nM; in [4] it was 1.1 nM; in [5] it was 1.3 nM; in [6], 0.0016 nM; in assay [7], 0.71 nM. Also, the Kd in [8] came out at 0.053 nM; in [9] it was 2.3 nM; in assay [10], 5 nM; in assay [11], 4.1 nM; in [12], 2.6 nM; in assay [13], 1.8 nM. Further, the equilibrium dissociation constant (Kd) in assay [14] worked out at 2.9 nM. Moreover, the koff came out at 0.00082 s⁻¹ in assay [1]; 0.00082 s⁻¹ in [2]; 0.00019 s⁻¹ in assay [3]; 0.00044 s⁻¹ in [4]; 0.00058 s⁻¹ in [5]; 9.7e-06 s⁻¹ in [6]. Besides, the koff stood at 0.00062 s⁻¹ in [7]; 7.4e-05 s⁻¹ in [8]; 0.0018 s⁻¹ in assay [9]; 0.0021 s⁻¹ in [10]; 0.0015 s⁻¹ in assay [12]; 0.00072 s⁻¹ in assay [13]. The molecule further yielded a koff in assay [14] of 0.0013 s⁻¹. The kon in assay [1] was determined as 580000 M⁻¹ s⁻¹; in [3] it was 670000 M⁻¹ s⁻¹; in assay [4], 400000 M⁻¹ s⁻¹; in assay [5], 430000 M⁻¹ s⁻¹; in [6], 6.1e+06 M⁻¹ s⁻¹; in [7], 880000 M⁻¹ s⁻¹. For the same molecule, the kon was determined as 1.4e+06 M⁻¹ s⁻¹ in assay [8]; 790000 M⁻¹ s⁻¹ in assay [9]; 420000 M⁻¹ s⁻¹ in [10]; 470000 M⁻¹ s⁻¹ in [11]; 610000 M⁻¹ s⁻¹ in [12]; 400000 M⁻¹ s⁻¹ in [13]. The molecule also displayed a kon in assay [14] of 440000 M⁻¹ s⁻¹.

B2: BMP15 (ligand)
chain: QADGISAEVTASSSKHSGPENNQCSLHPFQISFRQLGWDHWIIAPPFYTPNYCKGTCLRVLRDGLNSPNHAIIQNLINQLVDQSVPRPSCVPYKYVPISVLMIEANGSILYKEYEGMIAESCTCR
Take B2: in assay [9], the Kd was found to be 6.3 nM, the koff was found to be 0.0021 s⁻¹ and the kon was 330000 M⁻¹ s⁻¹.

B3: GDF11 (ligand)
chain: NLGLDCDEHSSESRCCRYPLTVDFEAFGWDWIIAPKRYKANYCSGQCEYMFMQKYPHTHLVQQANPRGSAGPCCTPTKMSPINMLYFNDKQQIIYGKIPGMVVDRCGCS
In [8], B3 returned a Kd of 0.052 nM, a koff of 0.00018 s⁻¹ and a kon of 3.5e+06 M⁻¹ s⁻¹.

B4: Nodal (ligand)
chain: HHLPDRSQLCRKVKFQVDFNLIGWGSWIIYPKQYNAYRCEGECPNPVGEEFHPTNHAYIQSLLKRYQPHRVPSTCCAPVKTKPLSMLYVDNGRVLLDHHKDMIVEECGCL
In assay [9], B4 came in with a Kd of 3.2 nM, a dissociation rate constant (koff) of 0.00014 s⁻¹ and a kon of 42000 M⁻¹ s⁻¹.

B5: BMP10 (ligand)
chain: NAKGNYCKRTPLYIDFKEIGWDSWIIAPPGYEAYECRGVCNYPLAEHLTPTKHAIIQALVHLKNSQKASKACCVPTKLEPISILYLDKGVVTYKFKYEGMAVSECGCR
Turning to B5, the Kd in assay [1] is 2.3 nM; in assay [3], 1 nM; in assay [4], 0.32 nM; in [5], 0.02 nM; in assay [7], 2.4 nM; in assay [8], 1 nM. Moreover, the Kd is 2.1 nM in assay [9]; 2.5 nM in assay [10]; 1.8 nM in assay [11]; 0.86 nM in assay [12]; 1.8 nM in assay [13]; 0.58 nM in assay [14]. For the same molecule, the koff turned out to be 7.9e-05 s⁻¹ in [1]; 1.9e-05 s⁻¹ in assay [3]; 7.8e-05 s⁻¹ in [4]; 2.8e-06 s⁻¹ in [5]; 5.5e-05 s⁻¹ in [7]; 0.00035 s⁻¹ in [8]. For the same molecule, the koff worked out at 0.00019 s⁻¹ in assay [9]; 0.00021 s⁻¹ in assay [10]; 0.00017 s⁻¹ in [11]; 0.00018 s⁻¹ in [12]; 0.00015 s⁻¹ in assay [13]; 3.8e-05 s⁻¹ in assay [14]. Moreover, the kon was found to be 34000 M⁻¹ s⁻¹ in [1]; 19000 M⁻¹ s⁻¹ in [3]; 250000 M⁻¹ s⁻¹ in assay [4]; 140000 M⁻¹ s⁻¹ in assay [5]; 23000 M⁻¹ s⁻¹ in assay [7]; 360000 M⁻¹ s⁻¹ in assay [8]. In addition, the kon in assay [9] was determined as 91000 M⁻¹ s⁻¹; in assay [10], 83000 M⁻¹ s⁻¹; in assay [11], 94000 M⁻¹ s⁻¹; in [12], 210000 M⁻¹ s⁻¹; in [13] it was 90000 M⁻¹ s⁻¹; in assay [14], 65000 M⁻¹ s⁻¹.
